Results published in US20110117113A1, “IMMUNOGLOBULIN SINGLE VARIABLE DOMAIN DIRECTED AGAINST HUMAN CXCR4 AND OTHER CELL ASSOCIATED PROTEINS AND METHODS TO GENERATE THEM” (priority 2009, published 2011).
“Also recorded” adds a separate entry of the source.

Legend:
[1] = biological target: T1, wildtype human CXCR4 (pcDNA3.1-CXCR4, expressed in HEK293T) (human, UniProt P61073 1-352); experiment: competition with [125I]-238D2, HEK293T-CXCR4 membranes
T1 construct: whole, on cells; also called hCXCR4; HEK293T CXCR4
T1 sequence (P61073 whole entry): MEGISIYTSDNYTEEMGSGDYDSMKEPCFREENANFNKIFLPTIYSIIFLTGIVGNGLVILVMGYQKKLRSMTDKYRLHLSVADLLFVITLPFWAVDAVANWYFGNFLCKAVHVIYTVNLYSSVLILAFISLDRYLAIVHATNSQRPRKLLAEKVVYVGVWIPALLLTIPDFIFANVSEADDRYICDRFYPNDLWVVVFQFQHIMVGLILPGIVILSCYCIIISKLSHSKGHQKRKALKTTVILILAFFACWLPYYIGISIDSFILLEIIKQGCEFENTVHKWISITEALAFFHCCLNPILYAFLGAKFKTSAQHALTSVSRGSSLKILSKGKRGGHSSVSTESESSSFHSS

CXCR4 mutant 2 (V196E) = biological target: T2, CXCR4 mutant 2 (V196E) (Homo sapiens, UniProt P61073, V196E); experiment: Footprint assay, flow cytometry binding to CXCR4 V196E on Hek293T cells; details: Myc-tag detection, 10 nM and 100 nM Nanobody, average n = 3, relative to hCXCR4
T2 construct: expressed in transfected cells; host or cells: Hek293T, transient, pcDNA3.1
T2 sequence (P61073 whole entry V196E): as the sequence (P61073 whole entry) above, with V196E counted along it
From the text: Based on the data from example 1.8, we introduced 3 single point-mutations in ECL2 of CXCR4 that allowed to discriminate between 238D2 and 238D4-like epitopes: V196E (specifically disturbing D2 binding)-SEQ ID NO: 20, D187V (specifically disturbing D4 binding)-SEQ ID NO: 21, F189V (disturbing binding of both D2 and D4)-SEQ ID NO: 19. […] For the epitope mapping, transient transfections of the three CXCR4 mutants and wildtype human CXCR4 in the pcDNA3.1 vector were done in Hek293T cells, after which Nanobody binding of different families was assessed by flow cytometry using detection of the Myc-tag, followed by secondary anti-mouse PE. Two concentrations of Nanobody were tested, 10 nM and 100 nM, and experiment was repeated with essentially the same results. Binding of the Nanobodies to HEK293T hCXCR4 cells was used for normalization using the following formulas:
Percentage of binding to the mutant receptors was calculated for each Nanobody concentration, and a position was considered as critical when less than 25% residual binding (average of n=3) was observed (Table C-5). […] Nanobodies could be grouped according to their different binding patterns, not only in “238D2-like” or “epitope A binders” and “238D4-like” or “epitope B binders” but also into other new groups.

CXCR4 = biological target: T3, CXCR4 (Homo sapiens, UniProt P61073); experiment: Competition binding, displacement of [^125I]-CXCL12 on membranes from HEK293T cells transiently expressing CXCR4
T3 construct: expressed in transfected cells; host or cells: HEK293T, transient; membrane fraction
T3 sequence (P61073 whole entry): as the sequence (P61073 whole entry) above
Method: Iodine incorporation and specific activity were controlled via precipitation of the protein with trichloroacetic acid.
Competition binding assay—Periplasmic fractions were screened in a competition binding assay using membranes from HEK293T cells transiently expressing CXCR4. […] Membranes were then harvested over polyethylenimine (0.5%)-treated Whatman GF/C filter plates and washed three times with ice cold binding buffer containing 500 mM NaCl. Plates were counted by liquid scintillation.
Characterization of Nanobody binding to CXCR4—Following purification, receptor binding to characteristics for 238D2 and 238D4 were investigated on cell membranes from HEK293T cells transiently expressing CXCR4.
Data analysis and presentation—Data are presented as mean±S.E.M. from n independent experiments. Concentration response curves (E/[A] curves) were fitted to the Hill equation using an iterative, least-squares method (GraphPad Prism 4.0, GraphPad Software, San Diego, Calif.) to provide maximal inhibitory effects (Imax), half maximal effective (EC50) or inhibitory concentrations (IC50). Competition binding affinities and functional antagonist affinities (Ki) were calculated using the Cheng and Prusoff equation Ki=IC50/(1+[agonist]/EC50) (Cheng & Prusoff, 1973).

Molecule | pKi [1] [pKi] | Hek293T V196E binding (CXCR4 mutant 2 (V196E)) | functional antagonist affinities (Ki) to CXCR4 (CXCR4; in words, [^125I]-CXCL12 displacement) | [^125I]-CXCL12 Displacem. (%) (CXCR4; maximal displacement, membranes from HEK293T cells transiently expressing CXCR4, mean ± S.E.M.) | displacement of specifically bound [^125I]-CXCL12 (in words) (CXCR4; membranes from HEK293T cells transiently expressing CXCR4) | [^125I]-CXCL12 pKi (CXCR4; receptor affinity, membranes from HEK293T cells transiently expressing CXCR4, mean ± S.E.M.)
Nanobody 238D4 (VHH) VHH: EVQLMESGGGLVQAGGSLRLSCAASGRTFNNYAMGWFRRAPGKEREFVAAITRSGVRSGVSAIYGDSVKDRFTISRDNAKNTLYLQMNSLKPEDTAVYTCAASAIGSGALRRFEYDYSGQGTQVTVSS | 8.8 | – | – | – | – | –
238D2: monovalent anti CXCR4 Nanobody, SEQ ID NO: 2 (protein, Nanobody) VHH: EVQLVESGGGLVQTGGSLRLSCAASGFTFSSYAMSWVRQAPGKGLEWVSGIKSSGDSTRYAGSVKGRFTISRDNAKNMLYLQMYSLKPEDTAVYYCAKSRVSRTGLYTYDNRGQGTQVTVSS | – | − (<=25% binding to mutant rel. to hCXCR4) | low nanomolar range | 93 ± 5 | strongly displacing; also recorded: fully displace | 8.01 ± 0.12
